Experimental findings from article PMC6358617 are described below.

For orientation: pKd means the Kd on a negative log10 scale, so that one unit is a factor of ten.

pKd: −log10 of the molar value.

This series deals with rituximab (MabThera, lot N7075B10). As to the kind of experiment: SAW. The note with it: 20 mM Tris-HCl pH 7.6, 100 mM NaCl, 2 mM MgCl2, 5 mM KCl, 1 mM CaCl2, 0.02% Tween 20; SAW at 22 C (protein A chip-captured rituximab); ELASA at room ….

As to “CGGCGGGGGGAGGATTGTGGTCTGCTCATGGCTGCCGTTT [RA1]”, the pKd was 6.17.

“CGTGGGTGGGGATTGTGGTTTGGCTGATGGGGTGCTGGTT [RA6]” had a pKd of 6.05. Next, “GGGGGTGAGGATTGTGGTTTGGCTTATTGGTTTGCTGGTG [RA3]”: 6.15; “TATACTGGGCCGTGCGTGACTTTTCCGTGCTGCATGAGAG [RA4]”: 6.45.

“TGGGGGTAGGATTGTGGTTGGCTTTAATTGCTTTGGTGGT [RA2]” showed a pKd of 6.40.
